{"source": "patent US20260232732A1", "about": "(FUNDACI INSTITUT DE RECERCA CONTRA LA LEUC MIA JOSEP …, published 2026)", "binders": {"B1": {"name": "Comparative antibody 1 (Comp-1) scFv, SEQ ID NO: 10 from WO2023/037125 A1, His-tagged (scFv)", "scFv": "QVQLKESGPGLVQPSQTLSLTCTVSGFSVASYDMHWVRLPPGKGLEWMGIIWANGNTHYNSGLKSRLSISRDTSKSQVFLKMNSLQTEDTAIYFCTRGGFAYWGQGTLVTVSSGGGGSGGGGSGGGGSGGGGSDVVMTQTPVSLSVSLGGQVSISCRSSQSLVHNNGNTYLSWYLQKPGQSPQLLIYKVSNRFSGVSDRFSGSGSGTDFTLKISRVEPDDLGVYYCGQGTQYPTFGGGTKLELKHHHHHH"}}, "key": {"naked peptide YCEKNNVRQF": {"target": "T1, naked peptide YCEKNNVRQF (human)", "T1 peptide": "YCEKNNVRQF", "assay": "ELISA naked peptide; scFv 1 ug/mL; repI", "description": "(§1) The peptides were synthesized naked or with a N-terminal Biotin modification with a purity of >98%. All four scFvs were verified by ELISA that can be detected with anti-His antibodies. ELISA was performed for scFv-peptide binding validation. Briefly, naked peptides were coated (50 μg/mL) in 0.58M carbonate-bicarbonate buffer pH9.5, 100 μL/well, 4° C. O/N. Then after blocking (3% BSA-PBS, 300 μL/well 37° C. 1.5 h) and washing (PBS+Tween-20 0.05% v/v (0.05% PBST), wells were incubated with each purified scFv antibody at concentration of 1 μg/mL in PBS at 37° C. 1 h. After washing (0.05% PBST), wells were incubated with secondary antibodies (goat anti-His IgG-HRP) in PBS, 37° C., 30 min. After washing, and incubation with TMB substrate, reactions were stopped with 2M HCl and reading was quantified at OD450.\n(§2) Then a library of overlapping peptides were designed and constructed separately to produce 16 different peptides, covering full antigen sequence of total 48 aa. Peptide size was 10aa, with 7aa overlapping and ELISA screening of scFv against each peptide was performed in duplicate. Screening was performed using naked peptides in a standard plate or biotinylated peptides using avidin-plates."}, "naked peptide TSSMEDYVNF": {"target": "T2, naked peptide TSSMEDYVNF (human)", "T2 peptide": "TSSMEDYVNF", "assay": "ELISA naked peptide; scFv 1 ug/mL; repI", "description": "as §1, §2"}, "naked peptide SESTSSMEDY": {"target": "T3, naked peptide SESTSSMEDY (human)", "T3 peptide": "SESTSSMEDY", "assay": "ELISA naked peptide; scFv 1 ug/mL; repI", "description": "as §1, §2"}, "naked peptide KNNVRQFAS": {"target": "T4, naked peptide KNNVRQFAS (human)", "T4 peptide": "KNNVRQFAS", "assay": "ELISA naked peptide; scFv 1 ug/mL; repI", "description": "as §1, §2"}, "naked peptide SSMEDYVNFN": {"target": "T5, naked peptide SSMEDYVNFN (human)", "T5 peptide": "SSMEDYVNFN", "assay": "ELISA naked peptide; scFv 1 ug/mL; repI", "description": "as §1, §2"}, "naked peptide DYGSESTSSM": {"target": "T6, naked peptide DYGSESTSSM (human)", "T6 peptide": "DYGSESTSSM", "assay": "ELISA naked peptide; scFv 1 ug/mL; repI", "description": "as §1, §2"}, "naked peptide TDFTSPIPNM": {"target": "T7, naked peptide TDFTSPIPNM (human)", "T7 peptide": "TDFTSPIPNM", "assay": "ELISA naked peptide; scFv 1 ug/mL; repI", "description": "as §1, §2"}, "naked peptide YVNFNFTDFY": {"target": "T8, naked peptide YVNFNFTDFY (human)", "T8 peptide": "YVNFNFTDFY", "assay": "ELISA naked peptide; scFv 1 ug/mL; repI", "description": "as §1, §2"}, "naked peptide SMEDYVNFNF": {"target": "T9, naked peptide SMEDYVNFNF (human)", "T9 peptide": "SMEDYVNFNF", "assay": "ELISA naked peptide; scFv 1 ug/mL; repI", "description": "as §1, §2"}, "naked peptide MTPTDFTSPI": {"target": "T10, naked peptide MTPTDFTSPI (human)", "T10 peptide": "MTPTDFTSPI", "assay": "ELISA naked peptide; scFv 1 ug/mL; repI", "description": "as §1, §2"}, "naked peptide TSPIPNMADD": {"target": "T11, naked peptide TSPIPNMADD (human)", "T11 peptide": "TSPIPNMADD", "assay": "ELISA naked peptide; scFv 1 ug/mL; repI", "description": "as §1, §2"}, "naked peptide FNFTDFYCEK": {"target": "T12, naked peptide FNFTDFYCEK (human)", "T12 peptide": "FNFTDFYCEK", "assay": "ELISA naked peptide; scFv 1 ug/mL; repI", "description": "as §1, §2"}, "naked peptide TDFYCEKNNV": {"target": "T13, naked peptide TDFYCEKNNV (human)", "T13 peptide": "TDFYCEKNNV", "assay": "ELISA naked peptide; scFv 1 ug/mL; repI", "description": "as §1, §2"}, "naked peptide MEDYVNFNFT": {"target": "T14, naked peptide MEDYVNFNFT (human)", "T14 peptide": "MEDYVNFNFT", "assay": "ELISA naked peptide; scFv 1 ug/mL; repI", "description": "as §1, §2"}, "[1]": {"target": "T15, biotin-peptide MTPTDFTSPI (human, also: prints MTPTDFTSP, without I10)", "T15 peptide": "Biotin-MTPTDFTSPI", "assay": "ELISA biotin-peptide; scFv 10 ug/mL; repII", "description": "as §1\n(§3) ELISA with biotin-conjugated peptides (5 μg/mL) was performed very similar to described above with minor modifications."}, "[2]": {"target": "T16, biotin-peptide TDFYCEKNNV (human)", "T16 peptide": "Biotin-TDFYCEKNNV", "assay": "ELISA biotin-peptide; scFv 10 ug/mL; repII", "description": "as §1, §3"}, "[3]": {"target": "T17, biotin-peptide IPNMADDYGS (human)", "T17 peptide": "Biotin-IPNMADDYGS", "assay": "ELISA biotin-peptide; scFv 10 ug/mL; repII", "description": "as §1, §3"}, "[4]": {"target": "T18, biotin-peptide TDFTSPIPNM (human)", "T18 peptide": "Biotin-TDFTSPIPNM", "assay": "ELISA biotin-peptide; scFv 10 ug/mL; repII", "description": "as §1, §3"}, "[5]": {"target": "T19, biotin-peptide SMEDYVNFNF (human)", "T19 peptide": "Biotin-SMEDYVNFNF", "assay": "ELISA biotin-peptide; scFv 10 ug/mL; repII", "description": "as §1, §3"}, "[6]": {"target": "T20, biotin-peptide MEDYVNFNFT (human)", "T20 peptide": "Biotin-MEDYVNFNFT", "assay": "ELISA biotin-peptide; scFv 10 ug/mL; repII", "description": "as §1, §3"}, "[7]": {"target": "T21, biotin-peptide TSPIPNMADD (human)", "T21 peptide": "Biotin-TSPIPNMADD", "assay": "ELISA biotin-peptide; scFv 10 ug/mL; repII", "description": "as §1, §3"}, "[8]": {"target": "T22, biotin-peptide SESTSSMEDY (human)", "T22 peptide": "Biotin-SESTSSMEDY", "assay": "ELISA biotin-peptide; scFv 10 ug/mL; repII", "description": "as §1, §3"}, "[9]": {"target": "T23, biotin-peptide YCEKNNVRQF (human)", "T23 peptide": "Biotin-YCEKNNVRQF", "assay": "ELISA biotin-peptide; scFv 10 ug/mL; repII", "description": "as §1, §3"}, "[10]": {"target": "T24, biotin-peptide SSMEDYVNFN (human)", "T24 peptide": "Biotin-SSMEDYVNFN", "assay": "ELISA biotin-peptide; scFv 10 ug/mL; repII", "description": "as §1, §3"}, "[11]": {"target": "T25, biotin-peptide TSSMEDYVNF (human)", "T25 peptide": "Biotin-TSSMEDYVNF", "assay": "ELISA biotin-peptide; scFv 10 ug/mL; repII", "description": "as §1, §3"}, "biotin-peptide KNNVRQFAS": {"target": "T26, biotin-peptide KNNVRQFAS (human)", "T26 peptide": "Biotin-KNNVRQFAS", "assay": "ELISA biotin-peptide; scFv 10 ug/mL; repII", "description": "as §1, §3"}, "[12]": {"target": "T27, biotin-peptide YVNFNFTDFY (human)", "T27 peptide": "Biotin-YVNFNFTDFY", "assay": "ELISA biotin-peptide; scFv 10 ug/mL; repII", "description": "as §1, §3"}, "[13]": {"target": "T28, biotin-peptide MADDYGSEST (human)", "T28 peptide": "Biotin-MADDYGSEST", "assay": "ELISA biotin-peptide; scFv 10 ug/mL; repII", "description": "as §1, §3"}, "[14]": {"target": "T29, biotin-peptide DYGSESTSSM (human)", "T29 peptide": "Biotin-DYGSESTSSM", "assay": "ELISA biotin-peptide; scFv 10 ug/mL; repII", "description": "as §1, §3"}, "[15]": {"target": "T30, biotin-peptide FNFTDFYCEK (human)", "T30 peptide": "Biotin-FNFTDFYCEK", "assay": "ELISA biotin-peptide; scFv 10 ug/mL; repII", "description": "as §1, §3"}}, "note": "Where no end group is shown, it is not given here. The star is where a group is joined. Biotin = O=C1N[C@H]2[C@H](CS[C@H]2CCCCC(=O)*)N1", "data": [{"binder": "B1", "values": [{"measurement": "OD450", "setting": "naked peptide YCEKNNVRQF", "value": 0.02, "unit": "OD"}, {"measurement": "OD450", "setting": "naked peptide TSSMEDYVNF", "value": 0.03, "unit": "OD"}, {"measurement": "OD450", "setting": "naked peptide SESTSSMEDY", "value": 0.03, "unit": "OD"}, {"measurement": "OD450", "setting": "naked peptide KNNVRQFAS", "value": 0.02, "unit": "OD"}, {"measurement": "OD450", "setting": "naked peptide SSMEDYVNFN", "value": 0.07, "unit": "OD"}, {"measurement": "OD450", "setting": "naked peptide DYGSESTSSM", "value": 0.02, "unit": "OD"}, {"measurement": "OD450", "setting": "naked peptide TDFTSPIPNM", "value": 0.03, "unit": "OD"}, {"measurement": "OD450", "setting": "naked peptide YVNFNFTDFY", "value": 0.05, "unit": "OD"}, {"measurement": "OD450", "setting": "naked peptide SMEDYVNFNF", "value": 0.02, "unit": "OD"}, {"measurement": "OD450", "setting": "naked peptide MTPTDFTSPI", "value": 0.05, "unit": "OD"}, {"measurement": "OD450", "setting": "naked peptide TSPIPNMADD", "value": 0.05, "unit": "OD"}, {"measurement": "OD450", "setting": "naked peptide FNFTDFYCEK", "value": 0.02, "unit": "OD"}, {"measurement": "OD450", "setting": "naked peptide TDFYCEKNNV", "value": 0.03, "unit": "OD"}, {"measurement": "OD450", "setting": "naked peptide MEDYVNFNFT", "value": 0.05, "unit": "OD"}, {"measurement": "OD450", "setting": "[1]", "value": 0.07, "unit": "OD"}, {"measurement": "OD450", "setting": "[2]", "value": 0.05, "unit": "OD"}, {"measurement": "OD450", "setting": "[3]", "value": 0.14, "unit": "OD"}, {"measurement": "OD450", "setting": "[4]", "value": 0.08, "unit": "OD"}, {"measurement": "OD450", "setting": "[5]", "value": 0.1, "unit": "OD"}, {"measurement": "OD450", "setting": "[6]", "value": 0.14, "unit": "OD"}, {"measurement": "OD450", "setting": "[7]", "value": 0.15, "unit": "OD"}, {"measurement": "OD450", "setting": "[8]", "value": 0.1, "unit": "OD"}, {"measurement": "OD450", "setting": "[9]", "value": 0.06, "unit": "OD"}, {"measurement": "OD450", "setting": "[10]", "value": 0.13, "unit": "OD"}, {"measurement": "OD450", "setting": "[11]", "value": 0.08, "unit": "OD"}, {"measurement": "OD450", "setting": "biotin-peptide KNNVRQFAS", "value": 0.06, "unit": "OD"}, {"measurement": "OD450", "setting": "[12]", "value": 0.09, "unit": "OD"}, {"measurement": "OD450", "setting": "[13]", "value": 0.07, "unit": "OD"}, {"measurement": "OD450", "setting": "[14]", "value": 0.11, "unit": "OD"}, {"measurement": "OD450", "setting": "[15]", "value": 0.05, "unit": "OD"}]}]}
